Test results taken from patent publication US20060177918.

Tested on: Myelin Basic Protein (Upstate USA, Inc. cat. no: 13-104)

Substance	increase in fluorescence over time (real-time kinase assay)
MAP kinase1/Erk1 (Upstate USA, Inc.)	greater than 4 fold increase in fluorescence over time
MAP kinase2/Erk2 (Upstate USA, Inc.)	greater than 4 fold increase in fluorescence over time
PKCβII (Upstate USA, Inc.)	greater than 4 fold increase in fluorescence over time
